According to publication PMC7660256:

Target: T1, PdhR (Escherichia coli K-12 W3110) (UniProt P0ACL9)
T1 sequence: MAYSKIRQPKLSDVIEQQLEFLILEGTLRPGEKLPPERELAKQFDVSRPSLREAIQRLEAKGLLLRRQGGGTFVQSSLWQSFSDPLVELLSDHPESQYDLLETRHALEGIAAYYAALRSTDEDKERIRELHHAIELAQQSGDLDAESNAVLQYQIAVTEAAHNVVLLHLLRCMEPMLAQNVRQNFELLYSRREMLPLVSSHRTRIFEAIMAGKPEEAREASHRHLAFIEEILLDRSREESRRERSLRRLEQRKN
Assay: EMSA
Settings: Gel shift buffer (composition not given), 37 °C, 30 min; 0.2 pmol probe, 0-10 pmol PdhR; GelRed stain. gSELEX: 10 mM Tris-HCl pH 7.8 (4 °C), 3 mM Mg acetate …

With “CTCTATATCACTCTCACAAATTCGCTCAAATAATAAACAATAAACTCTGTTTTTTGATCTCACCCGGTAAAGTCGCCTATCTTTTCAGCAACAAAACTTGATTAACATCAATTTTGGTATGACCAATGCACCATTCATGTTATTCTCAATAGCGAAGAACATTTTCATTGCTGTAACCTGTTGTTAATTAAGAGCTATGTTAATAACCATTAATTAACAATTGGTTAATAAATTTAAGGGGGTCACG (double strand) [ndh probe]” the binding was “binds”.
